Measurements from the supplement of paper PMC10567573.

B1: ZNF449 (parent)
chain: YRHQRLHTGERPYECTVCKKRFTR

Variants of: B1
Test: protein stability index of a GFP-peptide fusion (GPS, HEK-293T) (PSI 1-6); higher = more stable
Conditions: c terminus: a fixed tail appended
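Note: lentivirally expressed fusions sorted by FACS into six bins by GFP to DsRed ratio, PSI derived from sequencing read proportions per bin multiplied by bin number.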

Row | Variant | protein stability index
1 | YRHQRLHTGERPYECTVCKKRFTN [R24N] | 2.47
2 | YRHQRLHTGERPYECTVCKKRFTG [R24G] | 2.44
3 | YRHQRLHTGERPYECTVCKKRFTQ [R24Q] | 2.31
4 | YRHQRLHTGERPYECTVCKKRFTE [R24E] | 2.78
5 | YRHQRLHTGERPYEVTVCKKRFTR [C15V] | 2.85
6 | YRHQRLHTGERPYELTVCKKRFTR [C15L] | 3.11
7 | YRHQRLHTGERPYENTVCKKRFTR [C15N] | 3.44
8 | YRHQRLHTGERPYEMTVCKKRFTR [C15M] | 2.98
9 | YRHQRLHTGERPYEYTVCKKRFTR [C15Y] | 3.07
10 | YRHQRLHTGERPYEFTVCKKRFTR [C15F] | 3.02
11 | YRHQRLHTGERPYEETVCKKRFTR [C15E] | 3.35
12 | YRHQRLHTLERPYECTVCKKRFTR [G9L] | 2.21
13 | YRHQRLHTEERPYECTVCKKRFTR [G9E] | 2.31
14 | YRHQRLHTIERPYECTVCKKRFTR [G9I] | 2.4
15 | YRHQRLHTCERPYECTVCKKRFTR [G9C] | 3.86
16 | YRHQRLHTFERPYECTVCKKRFTR [G9F] | 2.01
17 | YRHQRLHTMERPYECTVCKKRFTR [G9M] | 2.25
18 | YRHQRLHTHERPYECTVCKKRFTR [G9H] | 2.81
19 | YRHQRLHTVERPYECTVCKKRFTR [G9V] | 2.07
20 | YRHQRLHTRERPYECTVCKKRFTR [G9R] | 2.45
21 | YRHQRLHTGERFYECTVCKKRFTR [P12F] | 2.19
22 | YRHQRLHTGERWYECTVCKKRFTR [P12W] | 2.44
23 | YRHQRLHTGERGYECTVCKKRFTR [P12G] | 2.21
24 | YRHQRLHTGERKYECTVCKKRFTR [P12K] | 2.62

Row | Variant | protein stability index
25 | YRHQRLHTGERVYECTVCKKRFTR [P12V] | 2.87
26 | YRHQRLHTGERPYPCTVCKKRFTR [E14P] | 2.93
27 | YRHQRLHTGERPYGCTVCKKRFTR [E14G] | 2.42
28 | YRHQRLHTGERPYSCTVCKKRFTR [E14S] | 2.69
29 | YRHQRLHTGERPYICTVCKKRFTR [E14I] | 2.77
30 | YRHQRLHTGERPYKCTVCKKRFTR [E14K] | 2.97
31 | YRHQRLHTGERPYDCTVCKKRFTR [E14D] | 2.23
32 | YRHQRLHTGERPYRCTVCKKRFTR [E14R] | 2.6
33 | YRHQRLHTGERPYHCTVCKKRFTR [E14H] | 2.52
34 | YRHQRLHTGERPYECTVCKIRFTR [K20I] | 2.26
35 | YRHQRLHTGERPYECTVCKERFTR [K20E] | 2.1
36 | YRHQRLHTGERPYECTVCKHRFTR [K20H] | 2.17
37 | YRHQRLHTGERPYECTVCKGRFTR [K20G] | 2.36
38 | YRHQRLHTGERPYECTVCKYRFTR [K20Y] | 2.46
39 | YRHQRLHTGERPYECTVCKTRFTR [K20T] | 2.03
40 | YRHQRLHTGERPYECTVCKQRFTR [K20Q] | 2.29
41 | YRHQRLHTGERPYECTVCKPRFTR [K20P] | 2.69
42 | YRHQRLHTGERPYECTVCKRRFTR [K20R] | 1.9
43 | YRHQRLHTGERPYECTVCKWRFTR [K20W] | 1.61
44 | YRHQRLHTGERPYECEVCKKRFTR [T16E] | 2.25
45 | YRHQRLHTGERPYECWVCKKRFTR [T16W] | 2.03
46 | YRHQRLHTGERPYECPVCKKRFTR [T16P] | 2.22
47 | YRHQRLHTGERPYECVVCKKRFTR [T16V] | 2.07
48 | YRHQRLHTGERPYECYVCKKRFTR [T16Y] | 2.75

Row | Variant | protein stability index
49 | YRHQRLHTGERPYECLVCKKRFTR [T16L] | 2.08
50 | YRHQRLHTGERPYECSVCKKRFTR [T16S] | 2.39
51 | YRHQRLHTGERPYECQVCKKRFTR [T16Q] | 2.27
52 | ERHQRLHTGERPYECTVCKKRFTR [Y1E] | 3.16
53 | VRHQRLHTGERPYECTVCKKRFTR [Y1V] | 2.45
54 | QRHQRLHTGERPYECTVCKKRFTR [Y1Q] | 2.88
55 | IRHQRLHTGERPYECTVCKKRFTR [Y1I] | 2.55
56 | NRHQRLHTGERPYECTVCKKRFTR [Y1N] | 2.35
57 | YLHQRLHTGERPYECTVCKKRFTR [R2L] | 2.16
58 | YKHQRLHTGERPYECTVCKKRFTR [R2K] | 2.32
59 | YVHQRLHTGERPYECTVCKKRFTR [R2V] | 3.09
60 | YWHQRLHTGERPYECTVCKKRFTR [R2W] | 1.57
61 | YYHQRLHTGERPYECTVCKKRFTR [R2Y] | 2.38
62 | YFHQRLHTGERPYECTVCKKRFTR [R2F] | 1.88
63 | YEHQRLHTGERPYECTVCKKRFTR [R2E] | 2.65
64 | YSHQRLHTGERPYECTVCKKRFTR [R2S] | 2.76
65 | YRHQRLRTGERPYECTVCKKRFTR [H7R] | 2.24
66 | YRHQRLETGERPYECTVCKKRFTR [H7E] | 2.09
67 | YRHQRLGTGERPYECTVCKKRFTR [H7G] | 2.14
68 | YRHQRLMTGERPYECTVCKKRFTR [H7M] | 1.97
69 | YRHQRLCTGERPYECTVCKKRFTR [H7C] | 2.65
70 | YRHQRLYTGERPYECTVCKKRFTR [H7Y] | 1.61
71 | YRHQRLATGERPYECTVCKKRFTR [H7A] | 2.17
72 | YRHQRLKTGERPYECTVCKKRFTR [H7K] | 2.75

Row | Variant | protein stability index
73 | YRHQRLLTGERPYECTVCKKRFTR [H7L] | 2.15
74 | YRHQRLQTGERPYECTVCKKRFTR [H7Q] | 2.53
75 | YRHQRLITGERPYECTVCKKRFTR [H7I] | 2.16
76 | YRHQRLHTGERPYECTMCKKRFTR [V17M] | 2.21
77 | YRHQRLHTGERPYECTECKKRFTR [V17E] | 2.37
78 | YRHQRLHTGERPYECTSCKKRFTR [V17S] | 2.5
79 | YRHQRLHTGERPYECTPCKKRFTR [V17P] | 3.17
80 | YRHQRLHTGERPYECTACKKRFTR [V17A] | 2.48
81 | YRHQRLHTGERPYECTLCKKRFTR [V17L] | 2.56
82 | YRHQRLHTGERPYECTHCKKRFTR [V17H] | 2.64
83 | YRHQRLHTGERPYECTTCKKRFTR [V17T] | 2.85
84 | YRHQRLHTGERPYECTNCKKRFTR [V17N] | 2.87
85 | YRHQRLHTGERPYECTQCKKRFTR [V17Q] | 2.47
86 | YRHQRLHTGEGPYECTVCKKRFTR [R11G] | 2.71
87 | YRHQRLHTGETPYECTVCKKRFTR [R11T] | 2.1
88 | YRHQRLHTGECPYECTVCKKRFTR [R11C] | 3.21
89 | YRHQRLHTGEIPYECTVCKKRFTR [R11I] | 2.22
90 | YRHQRLHTGEAPYECTVCKKRFTR [R11A] | 2.26
91 | YRHQRLHTGEHPYECTVCKKRFTR [R11H] | 2.43
92 | YRHQRLHTGERPYECTVCKKMFTR [R21M] | 1.89
93 | YRHQRLHTGERPYECTVCKKYFTR [R21Y] | 2.49
94 | YRHQRLHTGERPYECTVCKKSFTR [R21S] | 1.65
